Experimental data reported in patent US20130288275.

Columns and labels:
[1] = target: Purified SUMO-2 (Biomol UW9200)
[2] = target: Purified SUMO-3 (Biomol UW9210)
[3] = target: Purified SUMO-1 (Biomol UW9190), not acetylated

Chain of Purified SUMO-3 (Biomol UW9210) (P55854 whole entry): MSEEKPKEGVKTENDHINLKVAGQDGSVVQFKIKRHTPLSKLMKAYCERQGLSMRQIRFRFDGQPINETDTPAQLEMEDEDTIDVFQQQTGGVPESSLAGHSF

B1: CBP (CREB binding protein) from Biomol (protein)
chain: RKENKFSAKRLQTTRLGNHLEDRVNKFLRRQNHPEAGEVFVRVVASSDKTVEVKPGMKSRFVDSGEMSESFPYRTKALFAFEEIDGVDVCFFGMHVQEYGSDCPPPNTRRVYISYLDSIHFFRPRCLRTAVYHEILIGYLEYVKKLGYVTGHIWACPPSEGDDYIFHCHPPDQKIPKPKRLQEWYKKMLDKAFAERIIHDYKDIFKQATEDRLTSAKELPYFEGDFWPNVLEESIKELEQEEEERKKEESTAASETTEGSQGDSKNAKKKNNKKTNKNKSSISRANKKKPSMPNVSNDLSQKLYATMEKHKEVFFVIHLHAGPVINTLPPIVDPDPLLSCDLMDGRDAFLTLARDKHWEFSSLRRSKWSTLCMLVELHTQGQDRFVYTCNEC
For B1, the “in vitro acetylation with 14C-acetyl CoA, autoradiography” value (from here on “in vitro acetylation”) [1] was “SUMO-2 and SUMO-3 were also robustly acetylated by CBP (FIG. 2D, lanes 6-7)”, the “in vitro acetylation” value [2] was “SUMO-2 and SUMO-3 were also robustly acetylated by CBP (FIG. 2D, lanes 6-7)” and the “in vitro acetylation” value [3] was “purified SUMO-1 was efficiently acetylated by CBP (lane 3)”.

B2: PCAF (protein)
chain: GVIEFHVVGNSLNQKPNKKILMWLVGLQNVFSHQLPRMPKEYITRLVFDPKHKTLALIKDGRVIGGICFRMFPSQGFTEIVFCAVTSNEQVKGYGTHLMNHLKEYHIKHDILNFLTYADEYAIGYFKKQGFSKEIKIPKTKYVGYIKDYEGATLMGCELNPRIPYTE
With B2 the “in vitro acetylation” value [3] was “but not by PCAF (not shown)”.
